Data taken from article doi:10.1101/2022.05.06.490861.

Assays:
[1] = target: Arp2/3 complex (bovine (purified from bovine brain)) (UniProt P61157)
[2] = target: Arp2/3 complex (bovine (purified from bovine brain)) (UniProt P61157); remark: listed apart in the source

increase of the detachment rate of SPIN90-Arp2/3-nucleated filaments, 0-1 µM VCA [1] [fold] | acceleration of debranching of Arp2/3-mediated branches, 0-3 µM VCA [2] [fold] | Substance
< 16 |  | GST-N-WASP-VCA (from UniProt O00401 392-505) (domain or fragment)
 | < 83 | GST-WASH-VCA (from UniProt Q8VDD8 319-475) (domain or fragment)
